Here are results for five variants from IntAct's records for PubMed 36931259.

The labels stand for the following.
B1: 14-3-3 protein sigma (Homo sapiens), P31947 (parent)
chain: MERASLIQKAKLAEQAERYEDMAAFMKGAVEKGEELSCEERNLLSVAYKNVVGGQRAAWRVLSSIEQKSNEEGSEEKGPEVREYREKVETELQGVCDTVLGLLDSHLIKEAGDAESRVFYLKMKGDYYRYLAEVATGDDKKRIIDSARSAYQEAMDISKKEMPPTNPIRLGLALNFSVFHYEIANSPEEAISLAKTTFDEAMADLHTLSEDSYKDSTLIMQLLRDNLTLWTADNAGEEGGEAPQEPQS
partner: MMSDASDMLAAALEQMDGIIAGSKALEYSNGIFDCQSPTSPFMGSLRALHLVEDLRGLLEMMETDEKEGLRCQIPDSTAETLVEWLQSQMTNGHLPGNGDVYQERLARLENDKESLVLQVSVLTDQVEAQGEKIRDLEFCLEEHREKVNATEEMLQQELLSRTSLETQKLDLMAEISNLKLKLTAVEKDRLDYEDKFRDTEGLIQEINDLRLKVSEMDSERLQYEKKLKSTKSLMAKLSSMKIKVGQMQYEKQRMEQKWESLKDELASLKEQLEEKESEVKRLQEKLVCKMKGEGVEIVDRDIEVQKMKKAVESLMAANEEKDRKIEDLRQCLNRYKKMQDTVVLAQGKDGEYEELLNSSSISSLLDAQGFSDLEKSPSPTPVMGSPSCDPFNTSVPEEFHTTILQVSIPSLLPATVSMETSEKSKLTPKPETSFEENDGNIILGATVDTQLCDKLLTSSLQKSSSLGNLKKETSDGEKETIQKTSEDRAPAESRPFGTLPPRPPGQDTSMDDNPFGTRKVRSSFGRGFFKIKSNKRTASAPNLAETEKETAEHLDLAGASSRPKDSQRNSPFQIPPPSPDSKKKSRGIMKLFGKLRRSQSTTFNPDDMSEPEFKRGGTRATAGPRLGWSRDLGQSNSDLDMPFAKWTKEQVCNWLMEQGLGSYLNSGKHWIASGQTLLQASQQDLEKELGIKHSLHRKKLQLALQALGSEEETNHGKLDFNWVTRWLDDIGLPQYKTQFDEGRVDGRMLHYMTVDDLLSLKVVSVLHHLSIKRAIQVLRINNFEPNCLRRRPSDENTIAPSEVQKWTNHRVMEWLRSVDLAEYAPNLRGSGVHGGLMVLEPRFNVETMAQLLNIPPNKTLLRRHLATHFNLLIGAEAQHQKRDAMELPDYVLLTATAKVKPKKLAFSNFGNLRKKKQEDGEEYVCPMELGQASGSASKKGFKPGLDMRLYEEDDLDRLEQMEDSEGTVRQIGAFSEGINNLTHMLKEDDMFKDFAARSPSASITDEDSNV
B2: 14-3-3 protein sigma (Homo sapiens), P31947 (parent)
chain: B1 chain
partner: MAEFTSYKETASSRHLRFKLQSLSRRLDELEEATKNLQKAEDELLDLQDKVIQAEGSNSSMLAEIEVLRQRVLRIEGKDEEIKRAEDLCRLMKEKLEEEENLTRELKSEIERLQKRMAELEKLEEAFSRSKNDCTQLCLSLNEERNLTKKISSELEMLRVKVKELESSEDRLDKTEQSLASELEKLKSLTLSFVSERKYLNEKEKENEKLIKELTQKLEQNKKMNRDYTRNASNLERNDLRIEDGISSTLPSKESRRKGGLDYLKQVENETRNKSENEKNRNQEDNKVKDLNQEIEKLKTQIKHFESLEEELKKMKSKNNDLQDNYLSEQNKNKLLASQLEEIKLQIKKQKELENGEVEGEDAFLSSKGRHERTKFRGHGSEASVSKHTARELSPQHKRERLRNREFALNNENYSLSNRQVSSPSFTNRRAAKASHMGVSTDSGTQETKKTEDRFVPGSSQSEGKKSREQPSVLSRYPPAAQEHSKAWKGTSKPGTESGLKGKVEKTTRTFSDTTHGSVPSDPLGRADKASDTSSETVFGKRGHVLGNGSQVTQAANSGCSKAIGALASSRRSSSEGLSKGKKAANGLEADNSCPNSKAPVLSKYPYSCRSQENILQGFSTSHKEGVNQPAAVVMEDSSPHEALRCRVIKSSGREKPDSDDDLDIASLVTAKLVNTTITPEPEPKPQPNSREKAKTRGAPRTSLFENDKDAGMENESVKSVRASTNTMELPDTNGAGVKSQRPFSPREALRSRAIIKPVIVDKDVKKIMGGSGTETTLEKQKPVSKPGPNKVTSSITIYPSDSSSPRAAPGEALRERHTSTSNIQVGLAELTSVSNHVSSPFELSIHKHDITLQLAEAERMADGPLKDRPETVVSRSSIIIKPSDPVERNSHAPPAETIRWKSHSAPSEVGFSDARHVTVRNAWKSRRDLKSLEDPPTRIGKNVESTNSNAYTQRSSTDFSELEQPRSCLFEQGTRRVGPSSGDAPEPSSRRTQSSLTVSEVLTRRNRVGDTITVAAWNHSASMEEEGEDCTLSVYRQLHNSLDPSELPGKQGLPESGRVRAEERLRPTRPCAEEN
B3: 14-3-3 protein sigma (Homo sapiens), P31947 (parent)
chain: B1 chain
partner: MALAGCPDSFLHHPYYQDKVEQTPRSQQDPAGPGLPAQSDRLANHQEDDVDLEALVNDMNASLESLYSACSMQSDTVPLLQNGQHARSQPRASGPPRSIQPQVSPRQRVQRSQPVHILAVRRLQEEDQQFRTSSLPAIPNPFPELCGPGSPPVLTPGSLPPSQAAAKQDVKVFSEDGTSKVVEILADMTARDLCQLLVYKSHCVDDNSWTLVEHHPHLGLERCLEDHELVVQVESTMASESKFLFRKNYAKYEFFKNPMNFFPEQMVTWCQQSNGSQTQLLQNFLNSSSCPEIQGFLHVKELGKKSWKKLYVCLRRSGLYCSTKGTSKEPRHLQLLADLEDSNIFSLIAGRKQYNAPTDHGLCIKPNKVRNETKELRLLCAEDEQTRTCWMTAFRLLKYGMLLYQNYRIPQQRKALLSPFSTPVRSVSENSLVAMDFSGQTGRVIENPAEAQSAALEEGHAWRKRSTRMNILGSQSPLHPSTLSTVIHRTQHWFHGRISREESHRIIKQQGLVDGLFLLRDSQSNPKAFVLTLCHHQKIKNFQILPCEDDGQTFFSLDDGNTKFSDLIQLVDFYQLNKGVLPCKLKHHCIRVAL
B4: 14-3-3 protein sigma (Homo sapiens), P31947 (parent)
chain: B1 chain
partner: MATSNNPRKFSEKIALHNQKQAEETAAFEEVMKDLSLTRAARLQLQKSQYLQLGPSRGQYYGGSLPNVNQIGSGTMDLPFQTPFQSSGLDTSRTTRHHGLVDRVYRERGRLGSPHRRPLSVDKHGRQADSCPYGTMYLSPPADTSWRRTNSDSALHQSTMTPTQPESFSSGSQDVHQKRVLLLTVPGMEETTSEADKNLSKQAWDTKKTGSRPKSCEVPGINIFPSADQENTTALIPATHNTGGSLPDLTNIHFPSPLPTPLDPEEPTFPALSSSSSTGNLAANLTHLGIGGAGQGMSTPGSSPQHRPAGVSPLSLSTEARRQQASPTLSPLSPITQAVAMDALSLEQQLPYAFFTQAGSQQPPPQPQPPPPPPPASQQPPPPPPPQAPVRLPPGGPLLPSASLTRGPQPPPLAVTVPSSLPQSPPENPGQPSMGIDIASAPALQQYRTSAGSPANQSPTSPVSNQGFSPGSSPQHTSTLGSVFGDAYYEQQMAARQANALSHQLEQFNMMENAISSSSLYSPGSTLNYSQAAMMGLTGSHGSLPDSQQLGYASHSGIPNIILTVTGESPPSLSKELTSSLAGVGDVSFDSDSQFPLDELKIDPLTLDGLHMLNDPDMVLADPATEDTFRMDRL
B5: 14-3-3 protein sigma (Homo sapiens), P31947 (parent)
chain: B1 chain
partner: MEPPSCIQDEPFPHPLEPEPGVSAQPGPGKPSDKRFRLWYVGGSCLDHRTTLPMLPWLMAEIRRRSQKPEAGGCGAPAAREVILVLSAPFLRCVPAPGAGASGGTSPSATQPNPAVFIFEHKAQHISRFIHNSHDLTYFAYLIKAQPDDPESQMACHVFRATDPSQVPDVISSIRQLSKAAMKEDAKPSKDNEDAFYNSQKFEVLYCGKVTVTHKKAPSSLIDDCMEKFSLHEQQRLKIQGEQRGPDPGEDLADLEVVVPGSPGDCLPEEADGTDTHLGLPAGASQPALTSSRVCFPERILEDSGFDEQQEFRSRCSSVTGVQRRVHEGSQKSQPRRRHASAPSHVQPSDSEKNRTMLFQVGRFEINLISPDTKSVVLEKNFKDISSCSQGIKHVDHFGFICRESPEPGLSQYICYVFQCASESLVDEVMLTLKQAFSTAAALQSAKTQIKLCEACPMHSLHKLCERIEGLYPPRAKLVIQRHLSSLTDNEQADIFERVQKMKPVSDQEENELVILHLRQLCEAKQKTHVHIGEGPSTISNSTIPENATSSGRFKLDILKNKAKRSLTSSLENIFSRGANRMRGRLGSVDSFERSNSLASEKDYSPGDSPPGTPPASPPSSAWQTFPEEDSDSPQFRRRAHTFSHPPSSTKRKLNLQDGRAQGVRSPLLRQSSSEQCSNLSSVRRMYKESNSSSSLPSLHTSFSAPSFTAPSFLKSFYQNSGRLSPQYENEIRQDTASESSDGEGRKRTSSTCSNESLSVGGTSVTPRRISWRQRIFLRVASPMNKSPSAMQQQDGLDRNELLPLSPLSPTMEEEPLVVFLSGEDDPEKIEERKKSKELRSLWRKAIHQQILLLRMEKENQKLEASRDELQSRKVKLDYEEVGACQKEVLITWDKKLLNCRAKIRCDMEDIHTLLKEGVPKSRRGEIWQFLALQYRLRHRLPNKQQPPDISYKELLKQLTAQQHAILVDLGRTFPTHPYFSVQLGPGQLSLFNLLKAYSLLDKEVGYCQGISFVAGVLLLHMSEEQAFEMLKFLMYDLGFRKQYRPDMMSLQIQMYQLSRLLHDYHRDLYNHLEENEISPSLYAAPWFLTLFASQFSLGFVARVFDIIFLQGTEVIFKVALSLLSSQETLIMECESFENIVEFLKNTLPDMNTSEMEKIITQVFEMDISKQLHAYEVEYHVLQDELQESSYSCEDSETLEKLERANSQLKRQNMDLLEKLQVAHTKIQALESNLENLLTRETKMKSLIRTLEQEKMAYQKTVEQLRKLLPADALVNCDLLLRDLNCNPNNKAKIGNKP

The variants in the first assay derive from B1. To be noted: with lipb1_human PPFIBP1, Q86W92.
Take MERASLIQKAKLAEQAERYEDMAAFMKGAVEKGEELSCEERNLLSVAYENVVGGQEAAWRVLSSIEQKSNEEGSEEKGPEVREYREKVETELQGVCDTVLGLLDSHLIKEAGDAESRVFYLKMKGDYYRYLAEVATGDDKKRIIDSARSAYQEAMDISKKEMPPTNPIRLGLALNFSDFHYEIANSPEEAISLAKTTFDEAMADLHTLSEDSYKDSTLIMQLLRDNLTLWTADNAGEEGGEAPQEPQS [K49E;R56E;V178D]: the “effect of a mutation on the interaction” value is “decreasing interaction strength”.

In another assay the parent is B2. As to conditions: with luzp1_human LUZP1, Q86V48.
With MERASLIQKAKLAEQAERYEDMAAFMKGAVEKGEELSCEERNLLSVAYENVVGGQEAAWRVLSSIEQKSNEEGSEEKGPEVREYREKVETELQGVCDTVLGLLDSHLIKEAGDAESRVFYLKMKGDYYRYLAEVATGDDKKRIIDSARSAYQEAMDISKKEMPPTNPIRLGLALNFSDFHYEIANSPEEAISLAKTTFDEAMADLHTLSEDSYKDSTLIMQLLRDNLTLWTADNAGEEGGEAPQEPQS [K49E;R56E;V178D], the “effect of a mutation on the interaction” value is listed as “decreasing interaction strength”.

Variants of B3 are the subject of the next assay. To be noted: with grb10_human GRB10, Q13322.
Take MERASLIQKAKLAEQAERYEDMAAFMKGAVEKGEELSCEERNLLSVAYENVVGGQEAAWRVLSSIEQKSNEEGSEEKGPEVREYREKVETELQGVCDTVLGLLDSHLIKEAGDAESRVFYLKMKGDYYRYLAEVATGDDKKRIIDSARSAYQEAMDISKKEMPPTNPIRLGLALNFSDFHYEIANSPEEAISLAKTTFDEAMADLHTLSEDSYKDSTLIMQLLRDNLTLWTADNAGEEGGEAPQEPQS [K49E;R56E;V178D]: the “effect of a mutation on the interaction” value is “decreasing interaction strength”.

Variants of B4 are the subject of the next assay. As to conditions: with crtc1_human CRTC1, Q6UUV9.
In the case of MERASLIQKAKLAEQAERYEDMAAFMKGAVEKGEELSCEERNLLSVAYENVVGGQEAAWRVLSSIEQKSNEEGSEEKGPEVREYREKVETELQGVCDTVLGLLDSHLIKEAGDAESRVFYLKMKGDYYRYLAEVATGDDKKRIIDSARSAYQEAMDISKKEMPPTNPIRLGLALNFSDFHYEIANSPEEAISLAKTTFDEAMADLHTLSEDSYKDSTLIMQLLRDNLTLWTADNAGEEGGEAPQEPQS [K49E;R56E;V178D], the “effect of a mutation on the interaction” value is “decreasing interaction strength”.

Another assay covers variants of B5. To be noted: with tbcd4_human TBC1D4, O60343.
Regarding MERASLIQKAKLAEQAERYEDMAAFMKGAVEKGEELSCEERNLLSVAYENVVGGQEAAWRVLSSIEQKSNEEGSEEKGPEVREYREKVETELQGVCDTVLGLLDSHLIKEAGDAESRVFYLKMKGDYYRYLAEVATGDDKKRIIDSARSAYQEAMDISKKEMPPTNPIRLGLALNFSDFHYEIANSPEEAISLAKTTFDEAMADLHTLSEDSYKDSTLIMQLLRDNLTLWTADNAGEEGGEAPQEPQS [K49E;R56E;V178D], the “effect of a mutation on the interaction” value was “decreasing interaction strength”.
